Source: article PMC4277816 (Chemical communications (Cambridge, England), 2014)
Square brackets hold non-standard residues; d marks the D form. Peptide text beside a SMILES is read from it. * marks the point of attachment. X2 = O=C(O)C(CCCCN*)N1CCCN2CCN(CCCN(CP(=O)(O)O)CC2)CC1; PEG4 = NCCOCCOCCOCCOCCC(=O)O; X1 = O=C(/C=C/c1ccccc1)*

Test: serum stability of 64Cu-labelled cFlFlF peptide–chelate conjugates
Type: in vitro ADME
Settings: compared with the 64Cu–CB-TE1A1P peptide, result in words (Fig. S2b, ESI)

Q: Which serum stability does the source give for `CC(C)C[C@@H](NC(=O)[C@H](Cc1ccccc1)NC(=O)[C@@H](CC(C)C)NC(=O)[C@H](Cc1ccccc1)NC(=O)/C=C/c1ccccc1)C(=O)N[C@@H](Cc1ccccc1)C(=O)NCCOCCOCCOCCOCCC(=O)NCCCCC(C(=O)O)N1CCCN2CCN(CCCN(CP(=O)(O)O)CC2)CC1` (stereo partly drawn) [64Cu–CB-TE1K1P peptide, metal not drawn] (X1-F[dL]F[dL]F[PEG4]-X2; N-terminus assumed) here?
A: better serum stability
